From patent US20030199016 come the findings set out here.

The test system of series [1] is ACTIVASE recombinant human tissue-type plasminogen activator (r-tPA).
The test system of series [2] is TNK-tPA.
Series [3] concerns CHO plasminogen activator.
CHO plasminogen activator, sequence (chain, as listed by the source): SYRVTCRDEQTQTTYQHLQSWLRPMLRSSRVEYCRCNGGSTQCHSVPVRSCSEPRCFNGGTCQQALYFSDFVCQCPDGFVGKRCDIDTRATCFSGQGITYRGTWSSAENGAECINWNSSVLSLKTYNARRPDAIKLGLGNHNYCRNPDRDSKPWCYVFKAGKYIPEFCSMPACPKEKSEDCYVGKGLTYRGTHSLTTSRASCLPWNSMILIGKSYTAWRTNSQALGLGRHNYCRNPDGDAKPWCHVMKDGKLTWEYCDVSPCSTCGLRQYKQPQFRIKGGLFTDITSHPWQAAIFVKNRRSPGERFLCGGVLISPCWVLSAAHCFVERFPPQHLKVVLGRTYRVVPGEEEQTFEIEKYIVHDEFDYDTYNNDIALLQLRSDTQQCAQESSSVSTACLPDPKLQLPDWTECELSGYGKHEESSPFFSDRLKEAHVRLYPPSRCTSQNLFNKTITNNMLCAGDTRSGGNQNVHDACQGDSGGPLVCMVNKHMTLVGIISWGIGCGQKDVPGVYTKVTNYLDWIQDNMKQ

ACTIVASE recombinant human tissue-type plasminogen activator (r-tPA), sequence (chain, as listed by the source): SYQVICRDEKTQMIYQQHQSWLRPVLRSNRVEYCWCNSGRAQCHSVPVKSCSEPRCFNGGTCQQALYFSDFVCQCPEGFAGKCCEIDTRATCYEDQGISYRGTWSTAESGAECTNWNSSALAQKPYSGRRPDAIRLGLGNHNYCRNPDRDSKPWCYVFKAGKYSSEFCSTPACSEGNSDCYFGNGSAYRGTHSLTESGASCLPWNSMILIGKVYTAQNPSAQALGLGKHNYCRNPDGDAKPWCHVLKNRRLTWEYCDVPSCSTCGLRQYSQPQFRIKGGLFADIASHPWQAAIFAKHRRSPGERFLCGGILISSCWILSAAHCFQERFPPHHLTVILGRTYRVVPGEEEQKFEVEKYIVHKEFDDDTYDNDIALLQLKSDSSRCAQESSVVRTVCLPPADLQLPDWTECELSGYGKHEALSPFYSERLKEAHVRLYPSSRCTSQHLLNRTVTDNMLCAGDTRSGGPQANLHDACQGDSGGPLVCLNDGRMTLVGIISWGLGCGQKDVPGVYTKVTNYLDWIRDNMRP
TNK-tPA, sequence (chain, as listed by the source): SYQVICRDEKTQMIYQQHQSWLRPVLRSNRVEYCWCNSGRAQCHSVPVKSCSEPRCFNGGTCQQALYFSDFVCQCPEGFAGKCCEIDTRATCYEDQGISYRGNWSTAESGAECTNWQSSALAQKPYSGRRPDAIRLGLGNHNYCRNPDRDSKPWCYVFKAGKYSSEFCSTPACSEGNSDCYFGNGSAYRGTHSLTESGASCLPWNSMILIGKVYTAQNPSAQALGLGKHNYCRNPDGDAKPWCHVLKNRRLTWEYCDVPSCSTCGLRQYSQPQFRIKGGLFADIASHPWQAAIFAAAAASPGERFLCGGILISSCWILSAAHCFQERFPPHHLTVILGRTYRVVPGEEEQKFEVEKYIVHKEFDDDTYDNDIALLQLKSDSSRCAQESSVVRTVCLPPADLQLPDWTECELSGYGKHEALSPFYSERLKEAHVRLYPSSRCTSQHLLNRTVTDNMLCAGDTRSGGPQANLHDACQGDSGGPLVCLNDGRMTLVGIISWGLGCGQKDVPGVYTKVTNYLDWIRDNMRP

In the case of Plasminogen, the “conversion of single-chain form to two-chain form (reversed-phase HPLC after plasmin and DTT/urea treatment)” value in series [1], in series [2] and in series [3] was “incubation with plasminogen converts the single-chain form of the three plasminogen activators to the two-chain form” in each case.
